Assays:
[1] = target: SHP2-C SH2; test: SH2 binding enrichment of the phosphorylated peptide, bacterial display (enrichment ratio); higher = better substrate or ligand; peptides without Tyr show the background
[2] = target: Grb2 SH2 (UniProt P62993); test: as above
[3] = target: c-Src SH2; test: as above
[4] = target: MERTK (UniProt Q12866); test: phosphorylation enrichment, bacterial display (enrichment ratio); higher = better substrate or ligand; peptides without Tyr show the background
[5] = target: EPHB2 (UniProt P29323); test: as above
[6] = test system: Fer (mouse); test: as above
[7] = test system: c-Abl (mouse); test: as above
[8] = test system: AncSZ; test: as above
[9] = target: EPHB1 (UniProt P54762); test: as above
[10] = target: FGFR1 (UniProt P11362); test: as above
[11] = target: Jak2 (UniProt O60674); test: as above
[12] = test system: c-Src; test: as above
[13] = target: FGFR3 (UniProt P22607); test: as above
[14] = target: Hck (UniProt P08631); test: as above
[15] = target: Fes (UniProt P07332); test: as above
[16] = target: Fyn (UniProt P06241); test: as above
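Throughout, for SH2 binding enrichment of the phosphorylated peptide, bacterial display: peptide library displayed on the E. coli surface as eCPX fusions, selected cells deep-sequenced, score is each peptide's frequency after selection divided by its frequency in the input.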
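Throughout, for phosphorylation enrichment, bacterial display: 11-residue human phosphosite peptides and single-mutation variants displayed on the E. coli surface, counted by deep sequencing, each peptide's frequency after selection divided by its frequency in the unselected input library; frequency after pTyr selection over input frequency; kinase dosed for 20-30% of maximal phosphorylation in three min.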

Sequence of FGFR3 (P22607 whole entry, looked up): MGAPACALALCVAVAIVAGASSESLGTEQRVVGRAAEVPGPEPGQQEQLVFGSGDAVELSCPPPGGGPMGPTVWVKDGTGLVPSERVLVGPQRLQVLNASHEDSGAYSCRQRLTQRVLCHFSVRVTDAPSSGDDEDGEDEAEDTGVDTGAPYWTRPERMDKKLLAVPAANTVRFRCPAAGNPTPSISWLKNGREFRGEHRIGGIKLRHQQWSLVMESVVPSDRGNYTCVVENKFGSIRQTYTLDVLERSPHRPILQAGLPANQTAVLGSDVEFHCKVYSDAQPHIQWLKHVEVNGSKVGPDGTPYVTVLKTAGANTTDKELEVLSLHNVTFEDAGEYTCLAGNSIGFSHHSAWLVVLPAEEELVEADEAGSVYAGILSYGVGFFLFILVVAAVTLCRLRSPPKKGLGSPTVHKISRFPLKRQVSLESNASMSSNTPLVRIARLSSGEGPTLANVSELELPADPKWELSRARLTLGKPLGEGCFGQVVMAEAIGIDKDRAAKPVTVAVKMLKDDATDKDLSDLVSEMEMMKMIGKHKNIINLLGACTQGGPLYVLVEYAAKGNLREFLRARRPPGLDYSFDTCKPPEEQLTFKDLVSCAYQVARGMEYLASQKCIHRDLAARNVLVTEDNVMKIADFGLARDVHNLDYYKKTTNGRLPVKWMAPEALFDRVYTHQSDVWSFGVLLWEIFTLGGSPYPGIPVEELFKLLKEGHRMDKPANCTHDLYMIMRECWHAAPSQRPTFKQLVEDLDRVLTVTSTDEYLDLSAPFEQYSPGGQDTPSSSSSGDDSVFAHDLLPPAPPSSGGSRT
Sequence of Jak2 (O60674 whole entry, looked up): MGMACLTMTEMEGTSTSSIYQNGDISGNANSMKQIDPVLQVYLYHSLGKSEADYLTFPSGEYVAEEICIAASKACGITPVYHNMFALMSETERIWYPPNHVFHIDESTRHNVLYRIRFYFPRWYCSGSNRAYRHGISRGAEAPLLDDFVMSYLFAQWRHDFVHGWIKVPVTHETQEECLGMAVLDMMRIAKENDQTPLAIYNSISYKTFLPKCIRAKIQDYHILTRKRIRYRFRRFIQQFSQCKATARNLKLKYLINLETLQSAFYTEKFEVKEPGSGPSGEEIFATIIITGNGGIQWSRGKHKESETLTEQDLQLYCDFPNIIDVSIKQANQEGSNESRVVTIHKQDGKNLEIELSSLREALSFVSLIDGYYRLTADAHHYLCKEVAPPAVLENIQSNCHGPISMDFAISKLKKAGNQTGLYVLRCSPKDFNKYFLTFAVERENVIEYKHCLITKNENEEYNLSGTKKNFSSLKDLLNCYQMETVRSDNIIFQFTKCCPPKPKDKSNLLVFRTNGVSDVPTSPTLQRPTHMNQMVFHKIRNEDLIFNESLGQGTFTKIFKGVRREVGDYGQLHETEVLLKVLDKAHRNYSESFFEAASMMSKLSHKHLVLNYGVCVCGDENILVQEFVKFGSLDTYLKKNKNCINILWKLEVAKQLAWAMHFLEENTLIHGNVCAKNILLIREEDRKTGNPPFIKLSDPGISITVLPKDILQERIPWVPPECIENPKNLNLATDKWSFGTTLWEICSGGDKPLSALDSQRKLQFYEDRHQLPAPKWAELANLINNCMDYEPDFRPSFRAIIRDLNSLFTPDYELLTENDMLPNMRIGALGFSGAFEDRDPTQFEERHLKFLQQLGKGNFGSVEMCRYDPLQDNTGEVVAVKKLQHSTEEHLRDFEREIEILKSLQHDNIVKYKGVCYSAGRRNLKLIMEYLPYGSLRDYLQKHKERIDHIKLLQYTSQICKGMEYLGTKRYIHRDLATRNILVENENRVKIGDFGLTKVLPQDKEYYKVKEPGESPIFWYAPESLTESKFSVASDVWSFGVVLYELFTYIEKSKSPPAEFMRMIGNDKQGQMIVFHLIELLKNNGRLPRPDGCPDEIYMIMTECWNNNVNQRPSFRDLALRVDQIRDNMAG
Sequence of MERTK (Q12866 whole entry, looked up): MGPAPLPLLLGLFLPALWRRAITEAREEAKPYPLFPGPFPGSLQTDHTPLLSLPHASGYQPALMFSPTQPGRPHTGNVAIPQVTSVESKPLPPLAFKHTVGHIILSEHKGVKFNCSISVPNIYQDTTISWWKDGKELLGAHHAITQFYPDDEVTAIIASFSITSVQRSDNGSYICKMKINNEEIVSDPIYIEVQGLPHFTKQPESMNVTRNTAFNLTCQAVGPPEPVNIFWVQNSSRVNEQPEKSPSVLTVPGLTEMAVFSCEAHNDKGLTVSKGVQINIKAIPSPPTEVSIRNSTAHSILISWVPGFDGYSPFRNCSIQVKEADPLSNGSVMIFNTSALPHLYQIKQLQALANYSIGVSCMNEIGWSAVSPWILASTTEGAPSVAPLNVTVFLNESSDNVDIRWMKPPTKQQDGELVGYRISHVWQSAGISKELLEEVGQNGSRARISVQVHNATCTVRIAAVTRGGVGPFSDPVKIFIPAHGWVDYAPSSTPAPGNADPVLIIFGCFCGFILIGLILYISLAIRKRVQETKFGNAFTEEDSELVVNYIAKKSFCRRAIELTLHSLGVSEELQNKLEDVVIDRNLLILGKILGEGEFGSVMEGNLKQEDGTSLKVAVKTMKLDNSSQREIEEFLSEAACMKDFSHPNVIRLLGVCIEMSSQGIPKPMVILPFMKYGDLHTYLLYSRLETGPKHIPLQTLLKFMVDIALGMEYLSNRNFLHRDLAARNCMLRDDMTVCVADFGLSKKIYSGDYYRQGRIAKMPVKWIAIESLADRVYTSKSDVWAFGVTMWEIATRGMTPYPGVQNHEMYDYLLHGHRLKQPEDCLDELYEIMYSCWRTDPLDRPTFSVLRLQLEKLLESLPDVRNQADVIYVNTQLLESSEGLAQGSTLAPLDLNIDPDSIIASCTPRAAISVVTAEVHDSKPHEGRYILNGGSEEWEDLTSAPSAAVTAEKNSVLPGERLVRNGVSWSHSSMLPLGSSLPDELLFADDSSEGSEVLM
Sequence of Fes (P07332 whole entry, looked up): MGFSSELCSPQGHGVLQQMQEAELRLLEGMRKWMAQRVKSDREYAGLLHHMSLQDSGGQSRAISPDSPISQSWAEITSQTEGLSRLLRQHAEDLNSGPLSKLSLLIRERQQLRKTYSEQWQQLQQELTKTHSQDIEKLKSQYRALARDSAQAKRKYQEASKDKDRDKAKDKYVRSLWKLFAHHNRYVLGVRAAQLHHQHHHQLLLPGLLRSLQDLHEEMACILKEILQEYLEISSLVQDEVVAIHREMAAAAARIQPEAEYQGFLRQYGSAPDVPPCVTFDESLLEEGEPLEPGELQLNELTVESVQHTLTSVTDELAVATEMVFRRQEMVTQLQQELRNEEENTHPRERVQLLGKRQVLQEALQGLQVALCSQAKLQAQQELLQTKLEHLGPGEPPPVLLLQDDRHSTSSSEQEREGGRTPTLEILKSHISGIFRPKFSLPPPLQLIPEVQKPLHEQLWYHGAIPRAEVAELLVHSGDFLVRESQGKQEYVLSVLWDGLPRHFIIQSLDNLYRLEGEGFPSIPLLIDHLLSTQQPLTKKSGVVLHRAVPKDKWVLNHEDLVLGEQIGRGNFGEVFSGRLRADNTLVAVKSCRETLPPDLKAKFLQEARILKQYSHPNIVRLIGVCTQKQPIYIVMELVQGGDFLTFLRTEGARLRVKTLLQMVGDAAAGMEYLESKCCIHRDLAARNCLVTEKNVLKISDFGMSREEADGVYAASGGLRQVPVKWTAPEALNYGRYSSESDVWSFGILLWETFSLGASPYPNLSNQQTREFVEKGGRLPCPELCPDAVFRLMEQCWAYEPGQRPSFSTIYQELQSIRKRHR
Sequence of EPHB1 (P54762 whole entry, looked up): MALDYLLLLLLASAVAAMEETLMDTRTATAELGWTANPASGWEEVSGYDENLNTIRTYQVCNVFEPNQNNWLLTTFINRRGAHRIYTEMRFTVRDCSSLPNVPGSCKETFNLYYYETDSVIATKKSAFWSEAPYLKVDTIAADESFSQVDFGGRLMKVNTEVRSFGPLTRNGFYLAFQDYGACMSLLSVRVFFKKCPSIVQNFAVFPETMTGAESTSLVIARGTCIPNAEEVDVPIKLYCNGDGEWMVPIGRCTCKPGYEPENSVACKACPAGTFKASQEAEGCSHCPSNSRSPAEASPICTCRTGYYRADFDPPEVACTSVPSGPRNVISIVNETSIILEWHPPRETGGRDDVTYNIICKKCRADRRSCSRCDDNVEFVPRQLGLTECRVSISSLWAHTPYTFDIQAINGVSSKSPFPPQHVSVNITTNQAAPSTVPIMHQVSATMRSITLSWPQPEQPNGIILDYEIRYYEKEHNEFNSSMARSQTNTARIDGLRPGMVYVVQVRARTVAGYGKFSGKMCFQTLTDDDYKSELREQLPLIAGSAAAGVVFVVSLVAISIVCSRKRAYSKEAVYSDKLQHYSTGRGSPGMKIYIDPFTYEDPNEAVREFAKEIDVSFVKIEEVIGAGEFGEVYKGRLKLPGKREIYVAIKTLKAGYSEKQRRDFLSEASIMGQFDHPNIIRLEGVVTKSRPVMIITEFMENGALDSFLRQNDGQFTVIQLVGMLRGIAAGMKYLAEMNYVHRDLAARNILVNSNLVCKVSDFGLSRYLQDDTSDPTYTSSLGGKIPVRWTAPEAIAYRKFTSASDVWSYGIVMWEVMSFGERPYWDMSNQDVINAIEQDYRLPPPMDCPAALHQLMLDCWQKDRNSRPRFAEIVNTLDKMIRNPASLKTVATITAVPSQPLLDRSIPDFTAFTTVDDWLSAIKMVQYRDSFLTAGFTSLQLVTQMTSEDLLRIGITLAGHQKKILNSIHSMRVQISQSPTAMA

Sequence	SH2 binding enrichment [1]	SH2 binding enrichment [2]	SH2 binding enrichment [3]	phosphorylation enrichment [4]	phosphorylation enrichment [5]	phosphorylation enrichment [6]	phosphorylation enrichment [7]	phosphorylation enrichment [8]	phosphorylation enrichment [9]	phosphorylation enrichment [10]	phosphorylation enrichment [11]	phosphorylation enrichment [12]	phosphorylation enrichment [13]	phosphorylation enrichment [14]	phosphorylation enrichment [15]	phosphorylation enrichment [16]
VTGWGYRKLRD [F11_Y521]	0.472	0.798	0.505	0.51	0.517	0.385	0.477	0.792	0.364	0.392	0.655	0.479	0.419	0.42	0.703	0.463
PSPMPCASCQM [FOXL2_Y215_Y215C]	0.606	0.797	0.523	0.588	0.287	0.488	0.799	0.541	0.354	0.445	0.766	0.37	0.559	0.41	0.516	0.603
LIDGYYRLTED [JAK2_Y373_A377E]	4.88	0.886	9	0.574	0.914	0.564	1.07	1.48	0.708	1.51	7.39	0.899	1.57	0.778	1.32	0.625
NLSVRYDSSLK [ABCC8_Y1353]	0.863	0.887	0.587	0.381	0.457	0.422	0.55	0.68	0.515	0.446	0.847	0.492	0.633	0.473	0.98	0.353
VIEFSYTSADG [DHCR7_Y382_C380Y_YF]	0.858	0.87	1.97	0.415	0.504	0.499	0.608	0.944	0.562	0.444	0.764	0.341	0.652	0.503	1.16	0.442
TFFQMYDKGLV [IARS2_Y231_YF]	0.7	0.99	0.526	0.542	0.569	0.57	0.734	0.862	0.531	0.52	1.03	0.537	0.623	1.06	1.14	0.566
ALAHKCHGGGG [HBB_Y146_Y146C]	0.761	0.829	0.538	0.469	0.397	0.458	0.758	0.673	0.473	0.428	0.862	0.563	0.546	0.45	0.755	0.414
AVRVFYRKCPR [EPHB2_Y194]	0.529	0.611	0.417	0.517	0.463	0.518	0.78	0.948	0.345	0.428	0.7	0.557	0.645	0.512	0.655	0.464
RSSKMYFKTRS [LPL_Y329_L330F]	0.747	0.884	0.459	0.712	0.567	0.764	1.07	1.2	0.685	0.701	0.989	0.856	0.561	0.634	1.22	0.667
DQNVEYKGTVS [FHL1_Y117_W122S]	0.704	0.867	0.53	0.452	0.616	0.468	0.624	0.801	0.508	0.525	0.618	0.444	0.566	0.495	0.828	0.422
SIKNKYVTALF [KCNH2_Y611_D609N_YF]	1.06	0.994	0.671	0.41	0.459	0.371	0.487	0.672	0.394	0.417	0.566	0.41	0.507	0.465	0.653	0.402
VDESLYKTHPQ [HK1_Y417_G414E]	0.624	0.76	0.458	0.553	0.706	0.572	0.9	0.904	0.513	0.644	0.811	0.541	0.699	0.656	0.989	0.592
YCRHNYGVGES [HLA-DRB1_Y112_V115G]	0.838	0.936	0.823	0.582	0.473	0.361	0.602	0.686	0.492	0.549	0.65	0.552	0.534	0.383	0.913	0.487
IKELTYQMEED [MYH7_Y1852_T1854M]	0.605	0.825	0.507	0.432	0.628	0.495	0.667	1.19	0.634	0.591	1.01	1.21	0.768	0.646	1.18	0.889
KEGSAYGSQSV [NFKB2_Y868_D865G]	0.379	0.648	0.447	0.436	0.384	0.423	0.632	0.58	0.461	0.312	0.673	0.468	0.498	0.426	0.75	0.395
KAESWYQTKFE [KRT75_Y342_E337K_YF]	0.72	0.915	0.991	0.6	0.482	0.594	0.839	0.873	0.567	0.468	0.871	0.662	0.538	0.543	1.07	0.518
QTLTDYDTRFF [CSNK2A3_Y131_I133T_YF]	0.852	0.862	0.708	0.473	0.823	0.684	0.725	0.909	0.506	0.666	0.832	0.573	0.912	1.06	1.09	0.702
AVAFVYYKSIG [ADGRL4_Y301]	0.758	1.02	0.76	0.401	0.585	0.53	0.67	1.18	0.615	0.451	1.2	0.489	0.641	0.463	1.29	0.458

Second part, led by results:

SH2 binding enrichment [1]	SH2 binding enrichment [2]	SH2 binding enrichment [3]	Sequence	phosphorylation enrichment [4]	phosphorylation enrichment [5]	phosphorylation enrichment [6]	phosphorylation enrichment [7]	phosphorylation enrichment [8]	phosphorylation enrichment [9]	phosphorylation enrichment [10]	phosphorylation enrichment [11]	phosphorylation enrichment [12]	phosphorylation enrichment [13]	phosphorylation enrichment [14]	phosphorylation enrichment [15]	phosphorylation enrichment [16]
0.634	0.721	0.503	KELSNYKHLTL [SLIT2_Y776]	0.443	0.409	0.423	0.522	0.571	0.494	0.501	0.543	0.368	0.43	0.384	0.528	0.417
0.647	0.743	0.355	GGPAEYLRRAS [PKLR_Y38_G37E]	0.361	0.334	0.367	0.675	0.954	0.41	0.363	0.508	0.285	0.415	0.374	0.76	0.427
1.59	1.13	1.14	FGLDHYQCDCT [PTGS1_Y54_R53H]	0.489	0.5	0.464	0.61	0.956	0.401	0.453	0.812	0.464	0.68	0.424	0.986	0.379
0.654	0.751	0.477	FADIAYNYHHG [PAH_Y166_R169H]	0.462	0.385	0.443	0.415	0.643	0.387	0.433	0.567	0.638	0.525	0.494	0.803	0.469
0.992	1.24	0.653	TTSQPYRCLCS [USH2A_Y534]	0.781	0.587	0.509	1.07	0.951	0.473	0.552	0.931	0.562	0.707	0.523	0.941	0.557
0.63	0.798	0.891	STKELYEKYMI	0.412	0.594	5.61	0.518	0.805	0.504	0.484	0.69	0.821	0.591	0.72	0.825	0.602
5.82	0.847	4.06	LTGIAYSLPHW [SLC22A14_Y291]	3.24	0.94	0.877	1.41	1.61	0.969	0.658	0.997	0.764	0.956	1.08	1.68	0.921
1.48	0.865	0.823	QQLVAYYSKHT [SRC_Y232_A237T]	0.629	0.92	0.42	0.906	1.13	1.42	0.818	0.932	0.591	0.926	0.653	0.951	0.889
0.665	1.02	0.5	LSAPEYGPKLK [TBC1D14_Y46]	0.383	0.425	0.458	0.456	0.592	0.539	0.58	0.409	0.412	0.565	0.537	0.514	0.451
0.706	0.663	0.422	PLDGESFTLQI [TP53_Y327_Y327S]	0.549	0.93	0.552	1.23	1.64	0.731	0.634	1.26	0.616	1.05	0.619	1.67	0.569
0.576	0.848	0.438	TTTQAYRVNER [PRKN_Y391_D394N]	0.4	0.31	0.447	0.492	0.496	0.445	0.421	0.531	0.473	0.386	0.397	0.514	0.324
0.745	0.822	0.466	FRVAGYETQGG [TIA1_Y383_YF]	0.437	0.41	0.43	0.64	0.68	0.428	0.449	0.722	0.463	0.553	0.46	0.897	0.409
0.58	0.792	0.401	PSNTDYPGPHS [TP63_Y171]	0.552	0.661	0.582	1.01	0.809	0.589	0.511	0.768	0.5	0.722	0.482	0.909	0.438
0.962	0.766	0.433	HFMKLYEEKTG [PARP1_Y618]	0.438	0.46	0.277	0.355	0.862	0.482	0.464	0.592	0.425	1.08	0.519	0.663	0.282
0.514	0.541	0.464	RPSGRYPVARR [SHANK3_Y1569]	0.664	0.567	0.695	0.677	0.782	0.734	0.669	0.619	0.782	1.05	0.767	0.611	0.985

— the supplement of paper PMC10065799, “High-throughput profiling of sequence recognition by tyrosine kinases and SH2 domains using bacterial peptide display” (eLife, 2023)
